Results taken from patent publication US20240010750A1 (Bayer, published 2024).
Like-named read-outs stand apart in the source and are kept apart here.

T1: human alpha2-Antiplasmin (human, UniProt P08697 40-491)
T1 sequence: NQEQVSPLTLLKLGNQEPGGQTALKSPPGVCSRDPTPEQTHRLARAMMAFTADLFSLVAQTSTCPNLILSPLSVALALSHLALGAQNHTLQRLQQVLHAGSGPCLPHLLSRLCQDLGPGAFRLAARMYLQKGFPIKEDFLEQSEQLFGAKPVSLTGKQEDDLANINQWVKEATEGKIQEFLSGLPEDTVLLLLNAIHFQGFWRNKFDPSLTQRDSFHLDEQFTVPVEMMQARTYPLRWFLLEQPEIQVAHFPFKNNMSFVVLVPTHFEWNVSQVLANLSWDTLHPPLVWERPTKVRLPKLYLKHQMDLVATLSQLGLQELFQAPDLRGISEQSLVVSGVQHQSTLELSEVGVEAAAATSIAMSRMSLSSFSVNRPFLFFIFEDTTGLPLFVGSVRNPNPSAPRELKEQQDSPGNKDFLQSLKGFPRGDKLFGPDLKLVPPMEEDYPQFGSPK

T2: cynomolgus alpha2-Antiplasmin (cynomolgus (Macaca fascicularis), UniProt P08697 28-491 (human entry))
T2 construct: Made in house in the same way as the rabbit protein; also called cynomolgus A2AP; Macaca fascicularis A2AP
T2 chain: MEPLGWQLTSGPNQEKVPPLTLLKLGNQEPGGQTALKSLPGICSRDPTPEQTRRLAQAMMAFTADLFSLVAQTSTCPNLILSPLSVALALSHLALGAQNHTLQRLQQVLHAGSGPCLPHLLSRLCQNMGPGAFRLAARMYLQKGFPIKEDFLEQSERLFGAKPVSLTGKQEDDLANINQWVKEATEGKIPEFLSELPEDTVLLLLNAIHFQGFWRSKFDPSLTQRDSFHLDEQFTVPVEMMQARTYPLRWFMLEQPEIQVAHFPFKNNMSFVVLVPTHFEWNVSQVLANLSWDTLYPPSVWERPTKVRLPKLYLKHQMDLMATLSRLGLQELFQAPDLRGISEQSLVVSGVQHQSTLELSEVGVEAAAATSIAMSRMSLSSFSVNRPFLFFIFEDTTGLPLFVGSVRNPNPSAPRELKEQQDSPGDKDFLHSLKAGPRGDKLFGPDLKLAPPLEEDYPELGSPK

T3: rabbit alpha2-Antiplasmin (rabbit (Oryctolagus cuniculus))
T3 construct: Made in house in HEK293 cells, purified by Ni-IMAC and SEC (a His tag is implied but not described); also called rabbit A2AP; Oryctolagus cuniculus A2AP
T3 chain: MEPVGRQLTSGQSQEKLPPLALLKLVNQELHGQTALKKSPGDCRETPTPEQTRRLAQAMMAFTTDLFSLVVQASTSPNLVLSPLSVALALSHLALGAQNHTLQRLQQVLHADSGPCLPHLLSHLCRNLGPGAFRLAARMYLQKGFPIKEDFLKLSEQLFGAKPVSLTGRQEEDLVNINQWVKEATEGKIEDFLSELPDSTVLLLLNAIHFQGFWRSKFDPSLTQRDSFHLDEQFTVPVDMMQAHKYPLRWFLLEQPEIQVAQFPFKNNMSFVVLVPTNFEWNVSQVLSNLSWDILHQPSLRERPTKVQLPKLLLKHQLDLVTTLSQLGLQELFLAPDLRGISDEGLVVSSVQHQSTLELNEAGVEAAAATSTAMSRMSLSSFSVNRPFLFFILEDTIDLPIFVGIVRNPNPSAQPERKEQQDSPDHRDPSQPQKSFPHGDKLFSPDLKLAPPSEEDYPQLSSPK


Experiments:
human alpha2-Antiplasmin [1] = molecular target: T1, human alpha2-Antiplasmin; experiment: cell-based or functional assay
human alpha2-Antiplasmin [2] = molecular target: T1, human alpha2-Antiplasmin; experiment: ELISA, coated antigen, 1st exp.; 1st exp.
Experimental: (§1) A standard ELISA format was used for analyzing the binding affinity of Fabs of this invention to human and rabbit alpha-2-Antiplasmin, respectively. Antigens were coated to black 384 well Maxisorp microtiter plates (Nunc; catalogue number 460518), diluted to a concentration of 1 μg/ml in 1× Coating Buffer (Candor Bioscience; catalogue number 121125). Plates were incubated overnight at 4° C. After overnight incubation, plates were washed 2× with 50 μl/well using PBS+0.05% Tween 20. Following this, 50 μl/well of blocking buffer (Smart Block; Candor Bioscience; catalogue number 113500) was added and the plates were incubated for 1 hour at room temperature. Afterwards, plates were washed for 3× using […] PBS+0.05% Tween 20 buffer. Fabs of this invention were added at different concentrations in a final volume of 30 μl/well. Plates were incubated for 1 hour at room temperature. Following this incubation step, plates were washed for 3× using 50 μl/well of a PBS+0.05% Tween 20 buffer. For the detection of bound Fabs and full-length antibodies, the anti-Human Lambda Light Chains (Bound and Free)—Peroxidase antibody (Sigma; catalogue number A5175) was diluted by the factor of 1:10.000 in 10% Blocking Buffer. […]
For measurement, the Infinite f500 reader (Tecan) was used. Measurement mode: Fluorescence; Top reading; Ex 535 nm; Em 590 nm. […]

human alpha2-Antiplasmin [3] = molecular target: T1, human alpha2-Antiplasmin; experiment: cell-based or functional assay; remark: listed apart in the source
human alpha2-Antiplasmin [4] = molecular target: T1, human alpha2-Antiplasmin; experiment: ELISA, coated antigen, 2nd exp.
Experimental: (§2) A standard ELISA format was used for analyzing the binding affinity of Fabs of this invention to human and rabbit alpha-2-Antiplasmin, respectively. Antigens were coated to black 384 well Maxisorp microtiter plates (Nunc; catalogue number 460518), diluted to a concentration of 1 μg/ml in 1× Coating Buffer (Candor Bioscience; catalogue number 121125). Plates were incubated overnight at 4° C. After overnight incubation, plates were washed 2× with 50 μl/well using PBS+0.05% Tween 20. Following this, 50 μl/well of blocking buffer (Smart Block; Candor Bioscience; catalogue number 113500) was added and the plates were incubated for 1 hour at room temperature. Afterwards, plates were washed for 3× using […] PBS+0.05% Tween 20 buffer. Fabs of this invention were added at different concentrations in a final volume of 30 μl/well. Plates were incubated for 1 hour at room temperature. Following this incubation step, plates were washed for 3× using 50 μl/well of a PBS+0.05% Tween 20 buffer. For the detection of bound Fabs and full-length antibodies, the anti-Human Lambda Light Chains (Bound and Free)—Peroxidase antibody (Sigma; catalogue number A5175) was diluted by the factor of 1:10.000 in 10% Blocking Buffer. 30 μl/well of this diluted detection antibody was added and plates are incubated for 1 hour at room temperature. Following this incubation step, plates were washed for 3× using 50 μl/well of a PBS+0.05% Tween 20 buffer. As substrate, a mixture of 30 μl/well of 1:1000 diluted Amplex red (Invitrogen; catalogue number 12222; stock solution 10 mM in DMSO) and 1:10.000 of Hydrogen peroxide (Merck; catalogue number 107209; 30% stock solution) was added and the plates incubated for […] in the dark.
(§3) For measurement, the Infinite f500 reader (Tecan) was used. Measurement mode: Fluorescence; Top reading; Ex 535 nm; Em 590 nm.
(§4) According to the methods described in Example 3 and Example 4, antibodies TPP-14323, TPP-14318, TPP-14314, TPP-14313, TPP-14308, TPP-14305, TPP-14303, TPP-14298, and TPP-14293 were tested for their ability to bind to and to block the activity of human alpha2-Antiplasmin in a dose-dependent manner. For each antibody, one dose response curve from two to three independent experiments performed in quadruplicate is shown as example in FIG. 7.1 to FIG. 7.18. (see Table 3.3)

human Plasmin = human Plasmin (human, UniProt P00747 97-580; P00747 581-810, limits assumed); experiment: cell-based or functional assay
human alpha2-Antiplasmin [5] = molecular target: T1, human alpha2-Antiplasmin; experiment: ELISA, coated antigen, 3rd exp.
Experimental: as §2, §3, §4

human alpha2-Antiplasmin [6] = molecular target: T1, human alpha2-Antiplasmin; experiment: SPR Biacore T200, antibody captured on protein G chip, A2AP as analyte, 25 C
Experimental: (§5) Binding assays were performed on a Biacore T200 instrument at 25° C. with a protein G sensor chip and assay buffer HBS-EP+. Antibodies were captured to ˜150 RU and analytes were used at concentrations between 1.56 and 200 nM for full kinetics. As interaction partner, alpha2-Antiplasmin from human, cynomolgus and rabbit was used. Regeneration was performed with glycine-HCl pH 1.5. Kinetic parameters were derived by fitting experimental sensorgrams to a 1:1 Langmuir binding model.

[7] = molecular target: T2, cynomolgus alpha2-Antiplasmin; experiment: as above
Experimental: as §5

[8] = molecular target: T3, rabbit alpha2-Antiplasmin; experiment: as above
Experimental: as §5

human alpha2-Antiplasmin [9] = molecular target: T1, human alpha2-Antiplasmin; experiment: ELISA (Example 3), human alpha2-Antiplasmin coated, RFU
Experimental: as §1, with “Buffer. 30 μl/well of this diluted detection antibody was added and plates are incubated for 1 hour at room temperature. Following this incubation step, plates were washed for 3× using 50 μl/well of a PBS+0.05% Tween 20 buffer.” for “Buffer.”
as §3
According to the method described in Example 3, these 12 antibodies were tested for ability to bind human and rabbit alpha2-Antiplasmin in a dose-dependent manner. Data generated were analyzed using the GraphPadPrism software. The binding activities of the antibodies were calculated as EC50 values. […]

human alpha2-Antiplasmin [10] = molecular target: T1, human alpha2-Antiplasmin; experiment: ELISA, coated antigen, quantified unpurified antibody, 2nd exp.
human alpha2-Antiplasmin [11] = molecular target: T1, human alpha2-Antiplasmin; experiment: cell-based or functional assay; remark: listed apart in the source
human alpha2-Antiplasmin [12] = molecular target: T1, human alpha2-Antiplasmin; experiment: cell-based or functional assay; remark: listed apart in the source
human alpha2-Antiplasmin [13] = molecular target: T1, human alpha2-Antiplasmin; experiment: ELISA, coated antigen, quantified unpurified antibody, 3rd exp.
Experimental: as §2, §3

human alpha2-Antiplasmin [14] = molecular target: T1, human alpha2-Antiplasmin; experiment: cell-based or functional assay; remark: listed apart in the source
human alpha2-Antiplasmin [15] = molecular target: T1, human alpha2-Antiplasmin; experiment: ELISA, coated antigen, quantified unpurified antibody, 1st exp.

Chain of human Plasmin (P00747 97-580 limits assumed, chain 1 of 2): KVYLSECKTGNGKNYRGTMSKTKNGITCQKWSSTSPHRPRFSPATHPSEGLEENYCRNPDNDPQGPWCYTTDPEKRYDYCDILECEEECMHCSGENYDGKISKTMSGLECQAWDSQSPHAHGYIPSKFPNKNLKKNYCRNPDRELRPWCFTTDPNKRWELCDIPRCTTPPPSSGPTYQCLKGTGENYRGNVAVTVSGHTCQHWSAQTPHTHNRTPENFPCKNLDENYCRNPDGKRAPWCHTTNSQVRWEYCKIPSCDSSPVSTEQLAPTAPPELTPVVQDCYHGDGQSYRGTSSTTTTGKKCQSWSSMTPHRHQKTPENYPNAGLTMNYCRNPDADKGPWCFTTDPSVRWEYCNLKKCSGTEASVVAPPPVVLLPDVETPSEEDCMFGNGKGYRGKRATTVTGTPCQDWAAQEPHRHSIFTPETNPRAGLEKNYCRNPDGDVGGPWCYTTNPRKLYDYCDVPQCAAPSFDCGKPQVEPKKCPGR
Chain of human Plasmin (P00747 581-810 limits assumed, chain 2 of 2): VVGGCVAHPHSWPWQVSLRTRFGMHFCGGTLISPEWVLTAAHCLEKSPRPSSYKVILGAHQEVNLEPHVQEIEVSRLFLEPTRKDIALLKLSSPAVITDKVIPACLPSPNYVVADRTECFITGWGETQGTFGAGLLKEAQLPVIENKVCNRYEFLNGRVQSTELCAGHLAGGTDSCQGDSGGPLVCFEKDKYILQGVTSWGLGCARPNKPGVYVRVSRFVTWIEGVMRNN

Row | function blocking activity [IC50 M], 1st exp. (human alpha2-Antiplasmin [1]) | function blocking activity [IC50 M], 2nd exp. (human alpha2-Antiplasmin [1]) | function blocking activity [IC50 M], 3rd exp. (human alpha2-Antiplasmin [1]) | EC50 (human alpha2-Antiplasmin [2]) | EC50 (read off the curve); function blocking assay (Example 4), RFU of plasmin substrate cleavage (human alpha2-Antiplasmin [3]) | EC50 (human alpha2-Antiplasmin [4]) | IC50 [M], inhibition of plasmin proteolytic activity (human Plasmin) | EC50 (human alpha2-Antiplasmin [5]) | Kd (human alpha2-Antiplasmin [6]) | Kd [7] | Kd [8] | EC50 (read off the curve) (human alpha2-Antiplasmin [9]) | EC50 (human alpha2-Antiplasmin [10]) | IC50, A2AP function blocking assay (Example 10) (human alpha2-Antiplasmin [11]) | function blocking activity [IC50 M], 1st exp. (human alpha2-Antiplasmin [12]) | function blocking activity [IC50 M], 2nd exp. (human alpha2-Antiplasmin [12]) | function blocking activity [IC50 M], 3rd exp. (human alpha2-Antiplasmin [12]) | EC50 (human alpha2-Antiplasmin [13]) | EC50 (read off the curve); function blocking assay (Example 4), RFU of plasmin substrate cleavage (human alpha2-Antiplasmin [14]) | EC50 (human alpha2-Antiplasmin [15]) | Binder
1 | 31 nM | 37 nM | 40 nM | 5.7 nM | ~30 nM | 62 nM | > 5e-06 M | 58 nM |  |  |  |  |  |  |  |  |  |  |  |  | TPP-14298 hIgG1 (antibody, V domains shown) VH: EVQLLESGGGLVQPGGSLRLSCAASGFTFDDYAMSWVRQAPGKGLEWVSAIGTGGGTYYADSVKGRFTISRDNSKNTLYLQMNSLRAEDTAVYYCASEYYDSSGYYHLDYWGQGTLVTVSS VL: QSVLTQPPSASGTPGQRVTISCTGSSSNIGATYDVHWYQQLPGTAPKLLIYSNNQRPSGVPDRFSGSKSGTSASLAISGLRSEDEADYYCAAWDWSLSGWVFGGGTKLTVLG
2 |  |  |  |  |  |  | > 1e-05 M |  | 11 nM | 8.7 nM | 28 nM | ~0.5 nM | 0.58 nM | 0.15 nM | 0.43 nM | 0.65 nM | 0.5 nM | 0.63 nM | ~0.4 nM | 0.52 nM | TPP-17053 hIgG1 (antibody, V domains shown, Germline variant of TPP-14308) VH: EVQLLESGGGLVQPGGSLRLSCAASGFTFDDYAMSWVRQAPGKGLEWVSAIGSGGSTYYADSVKGRFTISRDNSKNTLYLQMNSLRAEDTAVYYCAREGYDSSGYYHLDYWGQGTLVTVSS VL: QSVLTQPPSASGTPGQRVTISCTGSSSNIGATYDVHWYQQLPGTAPKLLIYSNNQRPSGVPDRFSGSKSGTSASLAISGLRSEDEADYYCAAWDWSLSGWVFGGGTKLTVLG
